# Where a chain is given by its changes, count along the chain named.
# T1: CEA (carcinoembryonic antigen, Biodesign Intl., Saco, Me.) (UniProt P06731 35-685)
# T1 construct: also called immobilized CEA
# T1 sequence: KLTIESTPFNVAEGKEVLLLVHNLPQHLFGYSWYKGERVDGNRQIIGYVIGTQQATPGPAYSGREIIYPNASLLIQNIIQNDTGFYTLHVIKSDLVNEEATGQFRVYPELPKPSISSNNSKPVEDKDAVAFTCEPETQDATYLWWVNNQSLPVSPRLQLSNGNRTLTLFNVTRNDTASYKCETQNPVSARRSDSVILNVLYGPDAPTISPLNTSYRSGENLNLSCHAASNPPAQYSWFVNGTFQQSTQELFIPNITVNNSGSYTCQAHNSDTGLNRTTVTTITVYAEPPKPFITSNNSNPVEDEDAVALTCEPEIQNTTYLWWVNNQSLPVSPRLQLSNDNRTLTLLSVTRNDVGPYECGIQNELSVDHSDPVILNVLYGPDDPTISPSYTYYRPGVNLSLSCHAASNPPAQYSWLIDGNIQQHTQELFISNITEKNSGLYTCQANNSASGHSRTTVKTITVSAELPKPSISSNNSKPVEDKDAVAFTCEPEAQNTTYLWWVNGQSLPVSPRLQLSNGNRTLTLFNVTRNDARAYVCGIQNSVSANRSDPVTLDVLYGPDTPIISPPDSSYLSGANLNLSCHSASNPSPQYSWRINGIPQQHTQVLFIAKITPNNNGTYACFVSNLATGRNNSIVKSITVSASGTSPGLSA
# B1: CAB1.7 (clone pSW155.17) (scFv)
# chain: QVQLQQSGAELVKSGGSVKLSCTASGFNIKDSYMHWVRQGPEQGLEWIGWIDPENGDTEYAPKFQGKATFTTDTSSNTAYLQLSSLTSEDTAVYYCNEGLPLGAIYNDYWGQGTTVTVSSGGGGSGGGGSGGGGSENVLTQSPAIVSASPGEKVTITCSASSAVYAMHWFQQKPGTSPKLVIYDTSNLASGVPARFSGSGSGTSYSLTISRMEAEDAATYYCQQRDSYPLTFGAGTKLELDRAATPVSEKQLAEVVANTITPLMKAQSVPGMAVAVIYQGKPHYYTFGKADIAANKPVTPQTLFELGSISKTFTGVLGGDAIARGEISLDDAVTRYWPQLTGKQWQGIRMLDLATYTAGGLPLQVPDEVTDNASLLRFYQNWQPQWKPGTTRLYANASIGLFGALAVKPSGMPYEQAMTTRVLKPLKLDHTWINVPKAEEAHYAWGYRDGKAVRVSPGMLDAQAYGVKTNVQDMANWVMANMAPENVADASLKQGIALAQSRYWRIGSMYQGLGWEMLNWPVEANTVVETSFGNVALAPLPVAEVNPPAPPVKASWVHKTGSTGGFGSYVAFIPEKQIGIVMLANTSYPNPARVEAAYHILEALQ
# notes: scFv-BLA fusion
# B2: NA08.45 (scFv)
# chain: B1 chain with L100T, L102D, A104P, I105Y, N107F, A163S, Y165S, D184S, D226S, D241K
# B3: NA08.64 (scFv)
# chain: QVQLQQSGAELVKSGGSVKLSCTASGFNIKDSYMHWVRQGPEQGLEWIGWIDPENGDTEYAPKFDGKATFTTDTSSNTAYLQLSSLTSEDTAVYYCNEGTPTGPYYFDYWGQGTTVTVSSGGGGSGGGGSGGGGSENVLTQSPAIVSASPGEKVTITCSASSSVSAMHWFQQKPGTSPKLVIYSTSNLASGVPARFSGSGSGTSYSLTISRMEAEDAATYYCQQRSSYPLTFGAGTKLELKRAATPVSEKQLAEVVANTITPLMKAQSVPGMAVAVIYQGKPHYYTFGKADIAANKPVTPQTLFELGSISKTFTGVLGGDAIARGEISLDDAVTRYWPQLTGKQWQGIRMLDLATYTAGGLPLQVPDEVTDNASLLRFYQNWQPQWKPGTTRLYANASIGLFGALAVKPSGMPYEQAMTTRVLKPLKLDHTWINVPKAEEAHYAWGYRDGKAVRVSPGMLDAQAYGVKTNVQDMANWVMANMAPENVADASLKQGIALAQSRYWRIGSMYQGLGWEMLNWPVEANTVVETSFGNVALAPLPVAEVNPPAPPVKASWVHKTGSTGGFGSYVAFIPEKQIGIVMLANTSYPNPARVEAAYHILEALQ
# B4: NA08.51 (scFv)
# chain: B3 chain with D65Q, P104H
# B5: NA08.24 (scFv)
# chain: B3 chain with D65Q, T102D, A166Y, S226D
# B6: NA05.6 (CAB1.1) (scFv)
# chain: B3 chain with Q3K, V37L, D65Q, V146M, A166Y
# notes: also called pNA05.6
# B7: NA05.8 (scFv)
# chain: B3 chain with Q3K, G16T, V37L, D65Q, V146M, A166Y, F170Y, V181W, A234G
# B8: NA05.10 (scFv)
# chain: B3 chain with K13R, G16T, D65Q, V146M, A166Y, F170Y
# B9: NA05.9 (scFv)
# chain: B3 chain with K13R, S14P, G16T, E42G, D65Q, E136Q, A166Y, A234G
# B10: NA05.12 (scFv)
# chain: B3 chain with K13R, S14P, G16T, D65Q, A166Y, V181W
# B11: NA05.15 (scFv)
# chain: B3 chain with Q3K, K13R, G16T, V37L, D65Q, A166Y, F170Y, V181W, A194D
# B12: clone pSW134.1 (scFv)
# chain: B3 chain with D65Q, T100L, F107N, A166Y, S184D, S226D
# B13: clone pSW129.5 (scFv)
# chain: B3 chain with D65Q, T100L, T102L, A166Y, S184D, S226D
# B14: NA08.15 (CAB1.4) (scFv)
# chain: B3 chain with D65Q, A166Y, S184D, S226D
# B15: NA06.2 (scFv)
# chain: B3 chain with Q3K, E42G, D65Q, V146M, A166Y, A194D
# B16: NA06.12 (scFv)
# chain: B3 chain with Q3K, D65Q, E136Q, V146M, A166Y
# B17: NA06.11 (scFv)
# chain: B3 chain with D65Q, V146M, A166Y, A194D
# B18: NA06.4 (scFv)
# chain: B3 chain with Q3K, D65Q, A166Y
# B19: NA06.10 (scFv)
# chain: B3 chain with Q3K, D65Q, A166Y, A194D
# Biological target: T1, CEA (carcinoembryonic antigen, …)
# Test: screen of library SW155
row,Binder,binding result
1,B1,binds

# Biological target: T1, CEA (carcinoembryonic antigen, …)
# Test: CEA-coated plate at pH 6.5 and pH 7.4, bound BLA activity
row,Binder,binding result
1,B2,binds
2,B3,binds
3,B4,binds
4,B5,binds

# Biological target: T1, CEA (carcinoembryonic antigen, …)
# Test: CEA-coated plate, bound BLA activity (nitrocefin), cell lysate
row,Binder,binding result
1,B6,binds
2,B7,binds
3,B8,binds
4,B9,binds
5,B10,binds
6,B11,binds

# Biological target: T1, CEA (carcinoembryonic antigen, …)
# Test: screen of H3 site saturation mini-libraries for improved affinity
row,Binder,binding result
1,B12,binds
2,B13,binds

# Biological target: T1, CEA (carcinoembryonic antigen, …)
# Test: CEA-coated plate, binding curves at pH 6.5 and pH 7.4, bound BLA activity
row,Binder,binding result
1,B14,binds

# Biological target: T1, CEA (carcinoembryonic antigen, …)
# Test: CEA-coated plate after thermolysin treatment of the lysate, bound BLA activity
row,Binder,binding result
1,B15,binds
2,B16,binds
3,B17,binds
4,B18,binds
5,B19,binds

# — patent US20110160440A1 (GENENCOR INTERNATIONAL, published 2011)
